Results published in article PMC7865074, “Role of PDZ-binding motif from West Nile virus NS5 protein on viral replication” (Scientific Reports, 2021).
Ends that are not written are not given here.

T1: biotinylated WNV NS5 PBM peptide (West Nile virus, also: biotinyl group, end not given here)
T1 construct: bait of the holdup assay; also called 13-mer peptide; source: synthetic peptide (solid phase, Fmoc; Proteogenix)
T1 peptide: RYEDTTLVEDTVL


Molecular target: T1, biotinylated WNV NS5 PBM peptide
Test: holdup assay (automated high-throughput chromatography); biotinylated NS5 PBM peptide as bait against 259 human PDZ domains expressed in E. coli; read-out binding intensity (BI), mean of replicates; BI threshold 0.2 for a significant interaction

Row | Binder | BI (holdup binding intensity)
1 | SH3 and multiple ankyrin repeat domains protein 2, PDZ domain (holdup construct) (domain or fragment, human, UniProt Q9UPX8 626-720, looked up, also called SHANK2; source: E. coli, PDZome V.2 library, high-throughput expression) TVVLQKKDNEGFGFVLRGAKADTPIEEFTPTPAFPALQYLESVDEGGVAWQAGLRTGDFLIEVNNENVVKVGHRQVVNMIRQGGNHLVLKVVTVT | 0.39
2 | PDZ domain-containing protein GIPC3, PDZ domain (holdup construct) (domain or fragment, human, UniProt Q8TF64 112-192, looked up, source: E. coli, PDZome V.2 library, high-throughput expression) EVEVTKTEDALGLTITDNGAGYAFIKRIKEGSIINRIEAVCVGDSIEAINDHSIVGCRHYEVAKMLRELPKSQPFTLRLVQ | < 0.15
3 | Rho GTPase-activating protein 21, PDZ domain (holdup construct) (domain or fragment, human, UniProt Q5T5U3 50-159, looked up, also called ARHGAP21; source: E. coli, PDZome V.2 library, high-throughput expression) TVTLKRTSQGFGFTLRHFIVYPPESAIQFSYKDEENGNRGGKQRNRLEPMDTIFVKQVKEGGPAFEAGLCTGDRIIKVNGESVIGKTYSQVIALIQNSDTTLELSVMPKD | 0.3
4 | Microtubule-associated serine/threonine-protein kinase 2, PDZ domain (holdup construct) (domain or fragment, human, UniProt Q6P0Q8 1104-1192, looked up, also called MAST2; source: E. coli, PDZome V.2 library, high-throughput expression) PIIIHRAGKKYGFTLRAIRVYMGDSDVYTVHHMVWHVEDGGPASEAGLRQGDLITHVNGEPVHGLVHTEVVELILKSGNKVAISTTPLE | 0.72
5 | PDZ domain-containing RING finger protein 3, PDZ domain 1 (holdup construct) (domain or fragment, human, UniProt Q9UPQ7 249-339, looked up, also called PDZRN3_1; source: E. coli, PDZome V.2 library, high-throughput expression) TLVLHRDSGSLGFNIIGGRPSVDNHDGSSSEGIFVSKIVDSGPAAKEGGLQIHDRIIEVNGRDLSRATHDQAVEAFKTAKEPIVVQVLRRT | 0.35
6 | Disks large homolog 4, PDZ domain 3 (holdup construct) (domain or fragment, human, UniProt P78352 313-393, looked up, also called DLG4_3; source: E. coli, PDZome V.2 library, high-throughput expression) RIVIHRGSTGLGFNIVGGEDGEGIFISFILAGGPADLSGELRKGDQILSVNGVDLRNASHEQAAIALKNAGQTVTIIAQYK | 0.24
7 | FERM and PDZ domain-containing protein 4, PDZ domain (holdup construct) (domain or fragment, human, UniProt Q14CM0 78-155, looked up, also called FRMPD4; source: E. coli, PDZome V.2 library, high-throughput expression) KVEMRRDPVLGFGFVAGSEKPVVVRSVTPGGPSEGKLIPGDQIVMINDEPVSAAPRERVIDLVRSCKESILLTVIQPY | 0.32
8 | MAGUK p55 subfamily member 5, PDZ domain (holdup construct) (domain or fragment, human, UniProt Q8N3R9 256-336, looked up, also called MPP5; source: E. coli, PDZome V.2 library, high-throughput expression) IVRIEKARDIPLGATVRNEMDSVIISRIVKGGAAEKSGLLHEGDEVLEINGIEIRGKDVNEVFDLLSDMHGTLTFVLIPSQ | < 0.15
9 | Rho guanine nucleotide exchange factor 12, PDZ domain (holdup construct) (domain or fragment, human, UniProt Q9NZN5 72-151, looked up, also called ARHGEF12; source: E. coli, PDZome V.2 library, high-throughput expression) CVIIQKDDNGFGLTVSGDNPVFVQSVKEDGAAMRAGVQTGDRIIKVNGTLVTHSNHLEVVKLIKSGSYVALTVQGRPPGS | 0.25
10 | PDZ domain-containing protein 7, PDZ domain 3 (holdup construct) (domain or fragment, human, UniProt Q9H5P4 862-934, looked up, also called PDZD7_3; source: E. coli, PDZome V.2 library, high-throughput expression) TVTLSKMKQSLGISISGGIESKVQPMVKIEKIFPGGAAFLSGALQAGFELVAVDGENLEQVTHQRAVDTIRRA | 0.27
11 | Synaptojanin-2-binding protein, PDZ domain (holdup construct) (domain or fragment, human, UniProt P57105 13-100, looked up, also called SYNJ2BP; source: E. coli, PDZome V.2 library, high-throughput expression) EINLTRGPSGLGFNIVGGTDQQYVSNDSGIYVSRIKENGAAALDGRLQEGDKILSVNGQDLKNLLHQDAVDLFRNAGYAVSLRVQHRL | 0.21
12 | Protein piccolo, PDZ domain (holdup construct) (domain or fragment, human, UniProt Q9Y6V0 4496-4590, looked up, also called PCLO; source: E. coli, PDZome V.2 library, high-throughput expression) RIKITRDSKDHTVSGNGLGIRIVGGKEIPGHSGEIGAYIAKILPGGSAEQTGKLMEGMQVLEWNGIPLTSKTYEEVQSIISQQSGEAEICVRLDL | < 0.15
13 | Partitioning defective 3 homolog, PDZ domain 3 (holdup construct) (domain or fragment, human, UniProt Q8TEW0 590-677, looked up, also called PARD3_3; source: E. coli, PDZome V.2 library, high-throughput expression) EVPLNDSGSAGLGVSVKGNRSKENHADLGIFVKSIINGGAASKDGRLRVNDQLIAVNGESLLGKTNQDAMETLRRSMSTEGNKRGMIQ | 0.29
14 | Connector enhancer of kinase suppressor of ras 3, PDZ domain (holdup construct) (domain or fragment, human, UniProt Q6P9H4 211-293, looked up, also called CNKSR3; source: E. coli, PDZome V.2 library, high-throughput expression) EVHLPNIKPGEGLGMYIKSTYDGLHVITGTTENSPADRSQKIHAGDEVIQVNQQTVVGWQLKNLVKKLRENPTGVVLLLKKRP | < 0.15
15 | Partitioning defective 3 homolog B, PDZ domain 1 (holdup construct) (domain or fragment, human, UniProt Q8TEW8 201-289, looked up, also called PARD3B_1; source: E. coli, PDZome V.2 library, high-throughput expression) TRTVEISGEGGPLGIHVVPFFSSLSGRILGLFIRGIEDNSRSKREGLFHENECIVKINNVDLVDKTFAQAQDVFRQAMKSPSVLLHVLP | 0.48
16 | Disks large homolog 1, PDZ domain 2 (holdup construct) (domain or fragment, human, UniProt Q12959 319-405, looked up, also called DLG1_2; source: E. coli, PDZome V.2 library, high-throughput expression) EIKLIKGPKGLGFSIAGGVGNQHIPGDNSIYVTKIIEGGAAHKDGKLQIGDKLLAVNNVCLEEVTHEEAVTALKNTSDFVYLKVAKP | 0.22
17 | SH3 and multiple ankyrin repeat domains protein 1, PDZ domain (holdup construct) (domain or fragment, human, UniProt Q9Y566 663-757, looked up, also called SHANK1; source: E. coli, PDZome V.2 library, high-throughput expression) TVLLQKKDSEGFGFVLRGAKAQTPIEEFTPTPAFPALQYLESVDEGGVAWRAGLRMGDFLIEVNGQNVVKVGHRQVVNMIRQGGNTLMVKVVMVT | 0.39
